Measured values: the nanobody polyreactivity screen of Harvey et al. (2022)

Experiment: yeast display, Sf9 membrane polyspecificity reagent, FACS + sequencing; frameworks hold sequencing errors
In short: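 Polyreactivity labels are assigned by the sorting gate from which each nanobody was recovered. The gates were low and high (top ~1%), set on anti-HA fluorescence for expression and streptavidin fluorescence for reagent binding. Before sorting, galactose-induced (36–48 hours) yeast display cells were stained for 1 hour at 4 °C with 10% biotinylated, detergent-solubilized Sf9 membrane reagent.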

Sequence | polyreactivity (PSR sort gate)
QVQLVESGGGLVQAGGSLRLSCAASGIILYRNGMGWYRQAPGKERELVAAISWSTGSTYYADSVKGRFTISRDNAKYTVYLQMNSLKPEDTAVYYCATDYVGYSFGMYYWGQGTQVTVSS | low polyreactivity
QVQLVESGGGLVQAGGSLRLSCAASGIILYYYAMGWYRQAPGKERELVAAISSGGNTYYADSVKGRFTISRDNAKNTVYLQMYSLKPEDTAVYYCAAVTVIGGEYDYWGQGTQVTVSS | low polyreactivity
QVQLVESGGGLVQAGGSLRLSCAASGIISSFYAMGWYRQAPGKERELVAAINWSGDSTYYADSVKGRFTISRDNAKNTVYLQMNSLKPEDTAVYYCAADYYGFYDEHDYWGQGTKVTVSS | low polyreactivity
QVQLVESGGGLVQAGGSLRLSCAASGIIYDAYAMGWYRQAPGKERELVAAISSGGSTYYADSVKGRFTISRDNAKNTVSLQMNSLKPEDTAVYYCAAETEYPSWYDYWGQGTQVTVSS | low polyreactivity
QVQLVESGGGLVQAGGSLRLSCAASGIIYHFNDMGWYRQAPGQERELVASIDSTGSTNYADSVKGRFTLSRDNAKNTVYLQMNSLKPEDTAVYYCAVLNHRVDSVLTRYYYWGQGTQVTVSS | low polyreactivity
QVQLVESGGGLVQAGGSLRLSCAASGIIYVYAMGWYRQAPGKERELVAAITWSGGSTYYADSVKGRFTISRDNAKNTVYLQMNTLKPEDTAVYYCARGQGGEYDLDYDYWGQGTQVTVSS | low polyreactivity
QVQLVESGGGLVQAGGSLRLSCAASGIIYYANVMGWYRQAPGKERELVAGISRNGGRTYYADSVKGRFTISRDNAKNTVYLQMNSLKPEDTAVYYCAARGSYTSIFDYWGQGTQVTVSS | high polyreactivity
QVQLVESGGGLVQAGGSLRLSCAASGINFFGYAMGWYRQAPGKERELVAGISRSTGRTYYADSVKGRFTISRDNAKNTVYLQMNSLKQEDTSVYYCAARATRSLSRSMDYWGQGTQVTVSS | high polyreactivity
QVQLVESGGGLVQAGGSLRLSCAASGINFPGYAMGWYRQAPGKERELVAVIRKSGTSTYYADSVKGRFTISRDNAKNTVYLQMNSLKPEDTAVYYCAAGGPSTLDDYWGQGTQVTVSS | low polyreactivity
QVQLVESGGGLVQAGGSLRLSCAASGINFQNYAMGLYRQAPGKEREFVASISFSGASTYYADSVKGRFTISRDKAKNTVYLQMNSLKPDDTAVYYCAARYLYGPKYYYWGQGTQVTVSS | high polyreactivity
QVQLVESGGGLVQAGGSLRLSCAASGINNSVNDMGLYRQAPGKERELVAAISSGDSTNYADSVKGRFTISRDNAKNTVYLQMNSLKPEDTAGYYCAALEGCLTGWQTYDYWGQGTQVTVSS | low polyreactivity
QVQLVESGGGLVQAGGSLRLSCAASGINYVRYAMGWYRQAPGKEREFVAAITRNGGRTYYADSVKGRFTISRDNAKNTVYLQMNSLKPEDTAVYYCAAYPAYPGTLEMDYWGQGTQVTVSS | high polyreactivity
QVQLVESGGGLVQAGGSLRLSCAASGISFEYYAMGWYRQAPGKERELVAAITRGGSTYYADSVKGRFTISRDNAKNTVYLQMNSLKPEDTAVYYCAADRYYYEYDYWGQGTQVTVSS | low polyreactivity
QVQLVESGGGLVQAGGSLRLSCAASGITCSYYTIGWYRQATGKEWELVATISQSSGSTYYADSVKGRFTISRDNAKNTVYLQINTLKPEDTAVYYCKARRDYEWVSWNVVDDYWGQGTQVTVSS | high polyreactivity
QVQLVESGGGLVQAGGSLRLSCAASGITFAEYAMGWYRPAPGKERELVAAINGGGGSTYYADSVKGRFTISRDYAKNTVYFQMNSLKPEDTAVYYCAADGYPGDYDYWGQGTQVTVSS | high polyreactivity
QVQLVESGGGLVQAGGSLRLSCAASGITFAFYDMGWYRQAPGKERELVAAISYSGGGTYYADSVKGRFTISRDNAKNTVYLQMNSLKPEDTAVYYCAADPKTHALFGEDYWGQGTQVTVSS | low polyreactivity
QVQLVESGGGLVQAGGSLRLSCAASGITFAGYAMGSDREAPGTERELVAAITRRGGITYYADSVKGRFTISRDNAKNTVYLQMNSLKPEDTAVYYCNAGRRVSTYGYWGQGTQVTVSS | high polyreactivity
QVQLVESGGGLVQAGGSLRLSCAASGITFALNAMGWYRQAPGKERELVAAIRWGGDSTYYADSVKGRFTISRDNAKNTVYLQMNSLKPEDTAVYYCAAYGPRTLDYWGQGTQVTVSS | high polyreactivity
QVQLVESGGGLVQAGGSLRLSCAASGITFALYAMGWYRKAPGKERELVAAISYSGGRTYYADSVKGRFTISRDTAKNTVYLQMNSLKPEDTAVYYCAAGGSGSGPYGYGYWGQGTQVTVSS | high polyreactivity
QVQLVESGGGLVQAGGSLRLSCAASGITFASNPMGWYRQAPGKERELVAAITRGDNTYYADSVKGRFTISRDNAKNTVYLQMNSLKPEDTAVYYCATEGYQIQYEHDYWGQGTQVTVSS | low polyreactivity
QVQLVESGGGLVQAGGSLRLSCAASGITFASYAMGWYRQAPGKERELVAVITRSTGRTYYADSVKGRFTISRDNAKNTVYLQMNSLKPEDTAVYYCAAGYITWYDYWGQGTQVTVSS | high polyreactivity

Sequence | polyreactivity (PSR sort gate)
QVQLVESGGGLVQAGGSLRLSCAASGITFASYVMGWYRQAPGKERELVAAISSSGGSTYYADSVKGRFTISRDNAKNTVYLQMNSLKPEDTAVYYCKARLYYSWRSTYDYWGQGTQVTVSS | high polyreactivity
QVQLVESGGGLVQAGGSLRLSCAASGITFATNAMGWYRQAPGKERELVAGITSGGSTYYADSVKGRFTISRDNAKNTVYLQMNSLKPEDTAVYYCAKRYHYWYGTGYDYWGQGTQVTVSS | low polyreactivity
QVQLVESGGGLVQAGGSLRLSCAASGITFATYAMGWYRQAPGKERELVAAISGGGGRTYYADSLKGRFTISRDNAKNTVYLQMNSLKPEDTAVYYCATAQRSSQFYHWGQGTQVTVSS | high polyreactivity
QVQLVESGGGLVQAGGSLRLSCAASGITFAVKAMGWSRQAPGKERELVAAISRSAGSTYYADSVKGRFTISRDNAKNTVYLQMNSLKPEDTAVYYCATALRYARSRNRFYYWGQGTQVTVST | high polyreactivity
QVQLVESGGGLVQAGGSLRLSCAASGITFAVYAMGWYRQAPGKERELVAAITRGGGSTYYADSVKGRFSISRDNAKNTVYLQMNSLKPEHTAVYYCNADSIPEGNSRYSHFDYWGQGTQVTVSS | low polyreactivity
QVQLVESGGGLVQAGGSLRLSCAASGITFAYKAMGWYRQAPGTERELVARITSGGRTYYSDSVKARFTISRDNAMNTVYLQMNSLKPEDTAVYYCNAKEGSRYRKYDYWGQGTQVTVSS | low polyreactivity
QVQLVESGGGLVQAGGSLRLSCAASGITFAYYAMGWSRQAPGKERELVAAIRWSGGDTYYADSVKGRFTISRDNAKNTVYLQMNSLKPEDTAVYYCAADTTWGYDYWGQGTQVTVSS | low polyreactivity
QVQLVESGGGLVQAGGSLRLSCAASGITFAYYAMGWYRQAPGKERELVAAITRGGSTFYADSVKGRFTISRDNAKNTVYLQMNSLKPEDTAVYYCAKRYGTNTRYYHPYRYDYWGQGTQVTVSS | high polyreactivity
QVQLVESGGGLVQAGGSLRLSCAASGITFAYYVMGWYRQAPGKERELVAAINGSGGSTYYADSVKGRFTISRDTAKNTVYLQMNSLKPEDTAVYYCAAEQYVYRRYPEPDWYAYNYWGQGTQVTVSS | high polyreactivity
QVQLVESGGGLVQAGGSLRLSCAASGITFCYYGMGRYRQAPGKERELVAAISSGGRTYYADSVKGRFTISRDNAKNTVYLQMNSLNPEDSAVYYCADRTKYIFVYQGVYWGQGTQVTVSS | high polyreactivity
QVQLVESGGGLVQAGGSLRLSCAASGITFDANTMGWYRQAPGKERELVAVITDTGSTNYADSVKGRFTISRDNAKNTVYLQMNSLKPEDTAVYYCNADAEPSSGTSANNDYWGQGTQVTVSS | low polyreactivity
QVQLVESGGGLVQAGGSLRLSCAASGITFDDYDMGWYRQAPGKEREFVAAISFSGSSTYYADSVKGRFTISRDNAKNTVYLQMNSLKPEDTAVYYCNADYVYSGGRYYGKDYWFDYWGQGTQVTVSS | low polyreactivity
QVQLVESGGGLVQAGGSLRLSCAASGITFDEYAMGWYRQAPGKERELVAVISRSGGTTYYADSVKGRFTISRDNAKNTVYLQMNSLKPEDTAVYYCNARRWGPPGYYWGQGTQVTVSS | high polyreactivity
QVQLVESGGGLVQAGGSLRLSCAASGITFDGNAMGWYRQEPGKERELVAAIDFSGGSTTYADSVKGRFTISRDNAKNTVYLQMNSLKPEDTAVYYCAAVDWYGFLAVEEYYWGQGTQVTVSS | high polyreactivity
QVQLVESGGGLVQAGGSLRLSCAASGITFDIYNMGWYRQAPGKERELVAAISYSGGSTYYADSVKGRFTISRDNAKNTVYLQMYSLKPEDTAVYYCAAYEGTYFTEVDYWGQGTQVTVSS | low polyreactivity
QVQLVESGGGLVQAGGSLRLSCAASGITFDKYPMGRYRPAPGKDRELVAAISGSDGSTYYADSVKGRFTISRDNAKNSVYVQMNSLKPDDTAVYDCAAESVYAGTYEYDYWGQGTQVTVSS | low polyreactivity
QVQLVESGGGLVQAGGSLRLSCAASGITFDRYALGWYRPAPGKEREFVAAISWRGGSTYYADSVKGRFTISRDNAKNTVYLQMNSLKPEDTAVYYCAVGYYDHDYWYEYWGQGTQVTVSS | high polyreactivity
QVQLVESGGGLVQAGGSLRLSCAASGITFDRYAMGWYRQAPGKERELVAAITSGGRTYYADSVKGRFTISRDNAKNTVYLQMNSLKPEDTAVYYCNATRGQYVGRYYYWGQGTQVTVSS | high polyreactivity
QVQLVESGGGLVQAGGSLRLSCAASGITFDSYAMGWYRQAPGKERELVAAISYSGGSTYYADSVKGCFTISRDNAKNTVYLQMNSLKPEDTAVYYCAAASDDDYDYWGQGTQVTVSS | low polyreactivity
QVQLVESGGGLVQAGGSLRLSCAASGITFDSYAMGWYRQAPGKERELVATISRSGTTTYYADSVKGRFTISRDNAKNTVYLQMNSLKPEDTAVYYCNTLRAYWTYHFYGAVRDGYDYWGQGTQVTVSS | low polyreactivity
